The results in this text go back to article doi:10.1101/2025.09.02.673761 (bioRxiv, 2025).

The assay concerns the target GFP-tagged holo-CPC (Chromosomal Passenger Complex: INCENP, GFP-Aurora B, Borealin, Survivin) (human, UniProt Q9NQS7;Q96GD4;Q53HL2;O15392). Briefly: pull-down.

GFP-tagged holo-CPC (Chromosomal Passenger Complex: INCENP, GFP-Aurora B, Borealin, Survivin), sequence (Q9NQS7 whole entry, chain 1 of 4): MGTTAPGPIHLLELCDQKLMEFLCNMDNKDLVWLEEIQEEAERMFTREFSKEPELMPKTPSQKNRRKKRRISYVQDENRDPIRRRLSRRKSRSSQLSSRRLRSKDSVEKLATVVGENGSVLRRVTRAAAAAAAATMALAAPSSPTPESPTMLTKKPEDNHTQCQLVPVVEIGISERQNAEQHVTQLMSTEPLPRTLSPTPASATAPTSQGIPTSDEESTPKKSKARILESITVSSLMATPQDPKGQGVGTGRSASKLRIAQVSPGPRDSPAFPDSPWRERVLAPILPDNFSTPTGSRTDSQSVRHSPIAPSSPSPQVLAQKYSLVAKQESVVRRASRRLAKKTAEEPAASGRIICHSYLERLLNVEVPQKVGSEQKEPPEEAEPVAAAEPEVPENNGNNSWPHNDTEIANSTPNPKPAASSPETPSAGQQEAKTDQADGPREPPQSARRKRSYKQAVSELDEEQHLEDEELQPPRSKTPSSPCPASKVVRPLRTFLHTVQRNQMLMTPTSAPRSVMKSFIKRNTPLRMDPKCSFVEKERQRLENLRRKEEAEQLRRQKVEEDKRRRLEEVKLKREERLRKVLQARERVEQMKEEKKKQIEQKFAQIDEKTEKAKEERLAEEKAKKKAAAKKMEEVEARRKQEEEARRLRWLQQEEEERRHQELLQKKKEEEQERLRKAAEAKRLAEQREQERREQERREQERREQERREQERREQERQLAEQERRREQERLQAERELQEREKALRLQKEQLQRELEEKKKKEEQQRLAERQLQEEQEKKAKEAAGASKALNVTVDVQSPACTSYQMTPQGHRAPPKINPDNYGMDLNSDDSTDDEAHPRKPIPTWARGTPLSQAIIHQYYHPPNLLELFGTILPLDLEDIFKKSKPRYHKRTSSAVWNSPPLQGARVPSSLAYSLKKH
GFP-tagged holo-CPC (Chromosomal Passenger Complex: INCENP, GFP-Aurora B, Borealin, Survivin), sequence (Q96GD4 whole entry, chain 2 of 4): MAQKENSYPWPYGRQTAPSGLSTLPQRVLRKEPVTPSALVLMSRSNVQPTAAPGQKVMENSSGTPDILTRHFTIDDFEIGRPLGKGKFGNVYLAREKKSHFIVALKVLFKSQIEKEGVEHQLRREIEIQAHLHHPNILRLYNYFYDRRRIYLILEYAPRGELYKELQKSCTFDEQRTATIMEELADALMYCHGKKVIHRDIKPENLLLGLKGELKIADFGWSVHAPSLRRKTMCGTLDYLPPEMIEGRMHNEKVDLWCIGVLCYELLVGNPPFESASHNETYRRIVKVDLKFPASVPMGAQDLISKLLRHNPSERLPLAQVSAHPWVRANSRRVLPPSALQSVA
GFP-tagged holo-CPC (Chromosomal Passenger Complex: INCENP, GFP-Aurora B, Borealin, Survivin), sequence (Q53HL2 whole entry, chain 3 of 4): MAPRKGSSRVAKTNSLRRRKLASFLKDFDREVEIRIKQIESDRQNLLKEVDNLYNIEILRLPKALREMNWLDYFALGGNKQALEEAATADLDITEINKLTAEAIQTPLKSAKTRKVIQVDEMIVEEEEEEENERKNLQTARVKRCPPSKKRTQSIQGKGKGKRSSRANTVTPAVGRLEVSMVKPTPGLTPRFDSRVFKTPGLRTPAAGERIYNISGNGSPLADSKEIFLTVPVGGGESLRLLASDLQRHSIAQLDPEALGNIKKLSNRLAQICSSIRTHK
GFP-tagged holo-CPC (Chromosomal Passenger Complex: INCENP, GFP-Aurora B, Borealin, Survivin), sequence (O15392 whole entry, chain 4 of 4): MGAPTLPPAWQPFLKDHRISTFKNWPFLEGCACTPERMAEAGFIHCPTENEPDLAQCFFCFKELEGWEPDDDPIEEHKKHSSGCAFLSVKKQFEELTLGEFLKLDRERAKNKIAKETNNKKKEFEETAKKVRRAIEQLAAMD

B1: KIF20A (kinesin-6 motor), unlabeled (natural protein)
chain: MSQGILSPPAGLLSDDDVVVSPMFESTAADLGSVVRKNLLSDCSVVSTSLEDKQQVPSEDSMEKVKVYLRVRPLLPSELERQEDQGCVRIENVETLVLQAPKDSFALKSNERGIGQATHRFTFSQIFGPEVGQASFFNLTVKEMVKDVLKGQNWLIYTYGVTNSGKTHTIQGTIKDGGILPRSLALIFNSLQGQLHPTPDLKPLLSNEVIWLDSKQIRQEEMKKLSLLNGGLQEEELSTSLKRSVYIESRIGTSTSFDSGIAGLSSISQCTSSSQLDETSHRWAQPDTAPLPVPANIRFSIWISFFEIYNELLYDLLEPPSQQRKRQTLRLCEDQNGNPYVKDLNWIHVQDAEEAWKLLKVGRKNQSFASTHLNQNSSRSHSIFSIRILHLQGEGDIVPKISELSLCDLAGSERCKDQKSGERLKEAGNINTSLHTLGRCIAALRQNQQNRSKQNLVPFRDSKLTRVFQGFFTGRGRSCMIVNVNPCASTYDETLHVAKFSAIASQLVHAPPMQLGFPSLHSFIKEHSLQVSPSLEKGAKADTGLDDDIENEADISMYGKEELLQVVEAMKTLLLKERQEKLQLEMHLRDEICNEMVEQMQQREQWCSEHLDTQKELLEEMYEEKLNILKESLTSFYQEEIQERDEKIEELEALLQEARQQSVAHQQSGSELALRRSQRLAASASTQQLQEVKAKLQQCKAELNSTTEELHKYQKMLEPPPSAKPFTIDVDKKLEEGQKNIRLLRTELQKLGESLQSAERACCHSTGAGKLRQALTTCDDILIKQDQTLAELQNNMVLVKLDLRKKAACIAEQYHTVLKLQGQVSAKKRLGTNQENQQPNQQPPGKKPFLRNLLPRTPTCQSSTDCSPYARILRSRRSPLLKSGPFGKKY
In the case of B1, the binding result was “binds”.
